Assay results from paper PMC2992810.
Like-named read-outs stand apart in the source and are kept apart here.

Columns and labels:
[1] = biological target: MC2R-MRAP complex (HA-hMC2R co-expressed with mMRAP on CHO cells) (human | mouse) (UniProt Q01718)
[2] = biological target: MC2R-MRAP complex (HA-hMC2R co-expressed with mMRAP on CHO cells) (human | mouse) (UniProt Q01718); remark: listed apart in the source
[3] = biological target: MC2R-MRAP2 complex (HA-hMC2R co-expressed with mMRAP2 on CHO cells) (human | mouse) (UniProt Q01718)
[4] = biological target: MC2R-MRAP complex (HA-hMC2R co-expressed with mMRAP on CHO cells) (human | mouse) (UniProt Q01718); assay: radioligand binding
HA-hMC4R (human) [5] = biological target: HA-hMC4R (human) (UniProt P32245)
HA-hMC4R (human) [6] = biological target: HA-hMC4R (human) (UniProt P32245); assay: radioligand binding
HA-hMC4R (human) [7] = biological target: HA-hMC4R (human) (UniProt P32245); assay: radioligand binding; remark: listed apart in the source
HA-hMC4R (human) [8] = biological target: HA-hMC4R (human) (UniProt P32245); assay: radioligand binding; remark: listed apart in the source

Chain of UniProt P32245 (P32245 whole entry): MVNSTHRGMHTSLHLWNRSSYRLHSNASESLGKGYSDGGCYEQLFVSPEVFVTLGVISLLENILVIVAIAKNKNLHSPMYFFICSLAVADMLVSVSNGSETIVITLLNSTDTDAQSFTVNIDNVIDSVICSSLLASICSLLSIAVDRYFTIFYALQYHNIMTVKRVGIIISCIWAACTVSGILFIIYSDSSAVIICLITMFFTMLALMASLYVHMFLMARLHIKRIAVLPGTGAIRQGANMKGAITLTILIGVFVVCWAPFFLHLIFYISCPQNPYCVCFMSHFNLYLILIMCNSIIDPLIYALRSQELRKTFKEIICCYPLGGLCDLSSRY

Substance | EC50 of cAMP accumulation (LANCE assay, 20 min) in CHO cells [1] [nM] | EC50 of phosphorylation of ERK1 and ERK2 in serum-deprived HEK 293 cells (5 min) [2] [nM] | EC50 of phosphorylation of ERK1 and ERK2 in serum-deprived HEK 293 cells (5 min) [3] [nM] | IC50 [4] [nM] | EC50 of the CRE-Luc cAMP reporter response in CHO cells containing MC4R alone (HA-hMC4R (human) [5]) [nM] | EC50 of the CRE-Luc cAMP reporter response in CHO cells containing MC4R and MRAP (HA-hMC4R (human) [5]) [nM] | IC50 (HA-hMC4R (human) [6]) [nM] | IC50 (HA-hMC4R (human) [7]) [nM] | IC50 (HA-hMC4R (human) [8]) [nM]
ACTH(1–39) (peptide) | 2.4 | 1.1 | 68 | 5.7 |  |  |  |  | 
NDP-α-MSH (peptide) |  |  |  |  | 0.11 | 0.27 | 1.1 | 0.19 | 0.92
